Results from patent publication US20070196354A1, “Method of treating diabetes by inhibiting degradation of at least one of crebl1, atf6, and hnf-4 alpha by htra” (priority 2003, published 2007).

Key:
biotinylated CREBL1 = biological target: T1, biotinylated CREBL1 (Homo sapiens, UniProt Q99941); assay: In vitro protease assay using biotinylated CREBL1 (degradation pattern); type: biochemical; settings: 37° C., 4 hours or overnight
T1 construct: made in house; host or cells: cell-free: rabbit reticulocyte lysate (TNT Transcription/Translation System, Promega); the unpurified reaction solution was used
T1 sequence (Q99941 1-703): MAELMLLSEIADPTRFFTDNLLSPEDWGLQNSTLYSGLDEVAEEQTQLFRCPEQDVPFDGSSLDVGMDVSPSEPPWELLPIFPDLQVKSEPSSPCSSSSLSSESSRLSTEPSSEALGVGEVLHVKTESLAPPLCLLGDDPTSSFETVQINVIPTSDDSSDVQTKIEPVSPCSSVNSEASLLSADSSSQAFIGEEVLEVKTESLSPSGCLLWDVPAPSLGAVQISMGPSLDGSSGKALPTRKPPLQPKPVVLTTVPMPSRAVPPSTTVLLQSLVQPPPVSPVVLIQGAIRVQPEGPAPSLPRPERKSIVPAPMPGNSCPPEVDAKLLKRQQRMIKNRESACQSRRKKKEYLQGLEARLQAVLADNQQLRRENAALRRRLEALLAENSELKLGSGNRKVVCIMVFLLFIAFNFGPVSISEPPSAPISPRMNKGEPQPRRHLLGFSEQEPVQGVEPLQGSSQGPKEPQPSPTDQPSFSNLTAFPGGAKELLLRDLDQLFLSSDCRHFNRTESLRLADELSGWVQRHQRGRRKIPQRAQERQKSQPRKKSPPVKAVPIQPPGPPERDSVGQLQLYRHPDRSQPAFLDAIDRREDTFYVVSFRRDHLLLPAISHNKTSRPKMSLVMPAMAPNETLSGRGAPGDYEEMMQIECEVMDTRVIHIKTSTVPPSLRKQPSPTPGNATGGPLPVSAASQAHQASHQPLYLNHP
Method: More concretely, first, 1.5 μl of the animal cell expression plasmid for CREBL1 (1 μg/μl), 1 μl of 1 mM methionine, 1 μl of biotinylated lysine tRNA (Promega), and 6.5 μl of nuclease free water were added to 40 μl of in vitro translation reaction solution (TNT® Quick Master Mix) to obtain total volume of 50 μl, and reacted for at 30° C. for 1.5 hours. Following this, 12.5 μl of 50 μl reaction solution was sampled, followed by adding with 2×SDS sample buffer and boiling, to detect the expression of biotinylated CREBL1 by western blotting. The detection was carried out using streptavidin HRP (Promega) and Transcend™ Chemiluminescent substrate (Transcend™ Non-Radioactive Translation detection system; Promega). As a result, biotinylation of CREBL1 was confirmed in sample.
The reaction solution was used as the sample for protease assay. 12.5 μl each of the reaction solution was dispensed to three tubes (Nos. 2 to 4). 25 μl of 50 mM Tris-HCl (pH 7.5), 150 mM NaCl, 0.01% Triton X-100 was added as the control to tube No. 2, 25 μl of 200 μg/m mature HtrA2 solution was added to tube No. 3, and 25 μl of 200 μg/ml mature HtrA2 (S306A) solution was added to tube No. 4, respectively, and mixed. […]

CREBL1 = biological target: T2, CREBL1 (Homo sapiens, UniProt Q99941); assay: In vitro protease assay, CREBL1 captured on resin; type: biochemical; settings: 50 μg/ml, 37° C., overnight (O/N), anti-c-Myc detection
T2 construct: expressed in transfected cells; host or cells: HEK293T
T2 sequence (Q99941 1-703): T1 sequence (Q99941 1-703)
Method: CREBL1 and ATF6 which were captured on the resin were used in the experiments in order to eliminate the influence of proteinaceous impurities contained in the soluble fractions prepared from the cells obtained by transfecting an expression plasmid of CREBL1 or ATF6. Three hundreds μl of each soluble fraction of CREBL1 and ATF6 was dispensed to six tubes (Nos. 1 to 6), followed by adding 20 μl of protein G sepharose 4 FF (Amersham) of 50% slurry that had been subjected to blocking with BSA, to each of tubes, subjected to overturned mixing at 4° C. for 1 hour, and then subjected to centrifugation (10,000 rpm, 10 sec, 4° C.) to collect the supernatant, and thus the pre-treatment (pre-clean) was performed. The resultant supernatant was mixed with 1.7 μl (2 μg) of anti-Myc antibody (Invitrogen), subjected to overturned mixing at 4° C. for 3 hours, followed by adding 20 μl of protein G sepharose 4 FF that had been subjected to blocking with BSA, and then subjected to overturned mixing at 4° C. overnight. Thus, CREBL1 and ATF6 were respectively captured on protein G sepharose 4 FF. […]

B1: mature HtrA2: SEQ ID NO: 4; mature protein generated from HtrA2 precursor by cleavage of N-terminal 133 residues, has protease activity (protein, listed as Homo sapiens)
chain: MAVPSPPPASPRSQYNFIADVVEKTAPAVVYIEILDRHPFLGREVPISNGSGFVVAADGLIVTNAHVVADRRRVRVRLLSGDTYEAVVTAVDPVADIATLRIQTKEPLPTLPLGRSADVRQGEFVVAMGSPFALQNTITSGIVSSAQRPARDLGLPQTNVEYIQTDAAIDFGNSGGPLVNLDGEVIGVNTMKVTAGISFAIPSDRLREFLHRGEKKNSSSGISGSQRRYIGVMMLTLSPSILAELQLREPSFPDVQHGVLIHKVILGSPAHRAGLRPGDVILAIGEQMVQNAEDVYEAVRTQSQLAVQIRRGRETLTLYVTPEVTE
modifications: mature HtrA2
degradation of N-terminal tagged-CREBL1, detecting the Tag (biotinylated CREBL1; anti-Tag antibody): The band of N-terminal tagged-CREBL1 was reduced significantly
degradation of biotinylated CREBL1, detecting the biotin (biotinylated CREBL1; streptavidin HRP): The band of biotinylated CREBL1 was reduced significantly
degradation of CREBL1 (band by western blotting) (CREBL1): the band of CREBL1 was reduced significantly
